Publication PMC6277417 (Scientific Reports, 2018)

B1: Ab#2_GLP1: DPP-4-resistant GLP-1 analogue peptide fused by the [G4S]3A linker to the light chain of anti-PCSK9 Ab#2 (antibody, V domains shown)
VH: QVQLVQSGAEVKKPGASVKVSCKASGYTFTSYYMHWVRQAPGQGLEWMGEIHPSGGRTNYNEKFKSRVTMTRDTSTSTVYMELSSLRSEDTAVYYCARERPLYASDLWGQGTTVTVSS
VL: DIQMTQSPSSLSASVGDRVTITCKASQDVHTAVAWYQQKPGKAPKLLIYHASYRYTGVPSRFSGSGSGTDFTFTISSLQPEDIATYYCQQRYSLWRTFGQGTKLEIK
notes: also called non-glycosylated Ab#2_GLP1 fusion; source: CHO cells, transient co-transfection, purified (Protein A MabSelectSure)
B2: anti-PCSK9 antibody Ab#2 (antibody, V domains shown)
VH: B1 VH
VL: B1 VL
notes: also called anti-PCSK9 Ab#2; source: CHO cells, transient co-transfection, purified (Protein A MabSelectSure)

Assays:
[1] = biological target: T1, recombinant human PCSK9 (proprotein convertase subtilisin/kexin type 9) (human, UniProt Q8NBP7); experiment: SPR; sensorgrams of recombinant human PCSK9 binding to Ab#2 and to Ab#2_GLP1; typical of 8 independent experiments; set-up and conditions not told in the main text; details: both partners purified
T1 construct: also called recombinant PCSK9; source: recombinant

[2] = biological target: human GLP-1 receptor on stably transfected CHO cells (human) (UniProt P43220)
Chain of human GLP-1 receptor on stably transfected CHO cells (human) (P43220 24-463): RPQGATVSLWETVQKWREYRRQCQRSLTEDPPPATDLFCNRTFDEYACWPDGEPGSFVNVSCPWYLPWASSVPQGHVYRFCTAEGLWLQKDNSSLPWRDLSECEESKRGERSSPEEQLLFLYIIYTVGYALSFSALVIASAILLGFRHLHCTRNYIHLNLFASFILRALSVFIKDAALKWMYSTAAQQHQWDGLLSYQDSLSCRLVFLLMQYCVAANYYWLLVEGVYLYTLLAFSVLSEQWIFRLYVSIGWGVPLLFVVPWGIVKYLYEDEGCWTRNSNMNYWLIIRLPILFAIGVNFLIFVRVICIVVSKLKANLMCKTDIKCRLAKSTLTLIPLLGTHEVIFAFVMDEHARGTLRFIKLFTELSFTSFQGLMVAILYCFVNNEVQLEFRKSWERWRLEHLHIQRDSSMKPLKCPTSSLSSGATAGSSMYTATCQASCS

Binder | binding result [1] | potency in the cAMP accumulation assay, CHO cells expressing human GLP-1R [2]
B1 | binds | 0.087 nM
B2 | binds | 
